Measurements from patent publication US4642335A, “Anthracycline compounds bound to hydrophilic polypeptides” (Ajinomoto Co., Inc., priority 1984, dated 1987).
Values after ≈ are worked out from the molar mass of the structure shown. Like-named read-outs stand apart in the source and are kept apart here.

Assays:
mouse L1210 leukemia = assay: antitumor activity against mouse L1210 leukemia, life prolongation rate; assay type: in vivo; conditions: once a day for five days starting 24 hours after tumor cell injection, control survival day = 100%
Method: (§1) These HB-6 substances were tested for their antitumor activity in terms of mouse L1210 leukemia. L1210 leukemia cells (1×10^5) were abdominally injected to each mouse, and the test sample was administered once a day for consecutive five days, with the first administration being started 24 hours after injection of the tumor cells. The result is summarized in Table 1, in which the antitumor activity of each drug is expressed as life prolongation rate, taking the survival day for the control group as 100%.
as §1, with “HBW-6” for “HB-6”, “2,” for “1,”

[1] = test system: Bacillus subtilis ATCC6633; assay: antibacterial activity, MIC, Bacillus subtilis ATCC6633; assay type: cell-based
[2] = test system: Micrococcus luteus ATCC9341; assay: antibacterial activity, MIC, Micrococcus luteus ATCC9341; assay type: cell-based
[3] = test system: Pseudomonas aeruginosa ATCC10145; assay: antibacterial activity, MIC, Pseudomonas aeruginosa ATCC10145; assay type: cell-based
Solubility = assay type: physicochemical; conditions: water and organic solvents
Isoelectric point = assay type: physicochemical

Molecule	Life Prolongation Rate (mouse L1210 leukemia; dose 2 mg/Kg) [%]	MIC [1] [µg/mL]	MIC [2] [µg/mL]	MIC [3] [µg/mL]	Life Prolongation Rate (mouse L1210 leukemia; dose 1 mg/Kg) [%]	further results
COc1cccc2c1C(=O)c1c(O)c3c(c(O)c1C2=O)C[C@@](O)(C(C)=O)C[C@@H]3O[C@H]1C[C@H](N)[C@H](O)[C@H](C)O1 [Daunomycin, daunomycin, reference compound]	145	–	–	–	–	MIC ([1]; read-out: MIC): 5.8 µg/mL (≈ 11 µM); MIC ([2]; read-out: MIC): 1.2 µg/mL (≈ 2.27 µM); MIC ([3]; read-out: MIC): > 10 µg/mL
NCS-apoprotein: methanol-insoluble fraction (protein moiety) of neocarzinostatin (protein, UniProt P0A3R9 35-147, looked up) Neocarzinostatin: AAPTATVTPSSGLSDGTVVKVAGAGLQAGTAYDVGQCAWVDTGVLACNPADFSSVTADANGSASTSLTVRRSFEGFLFDGTRWGTVDCTTAACQVGLSDAAGNGPEGVAISFN	101	> 100	> 100	> 100	–	Solubility (Solubility): Soluble in water; insoluble in methanol, ethanol, acetone, butanol and propanol; Isoelectric point (Isoelectric point): 3.2 pH
HBW-10(A): NCS-apoprotein and daunomycin bound through hydrogen bond and/or hydrophobic bond, molar ratio 1:1 (conjugate, UniProt P0A3R9 35-147, looked up, noncovalent complex with daunomycin, 1:1) Neocarzinostatin: AAPTATVTPSSGLSDGTVVKVAGAGLQAGTAYDVGQCAWVDTGVLACNPADFSSVTADANGSASTSLTVRRSFEGFLFDGTRWGTVDCTTAACQVGLSDAAGNGPEGVAISFN	–	2.3	0.30	> 10	260	–
HBW-21(A): NCS-apoprotein and aclacinomycin A bound together, molar ratio 1:1 (conjugate, UniProt P0A3R9 35-147, looked up, aclacinomycin A conjugate, 1:1) Neocarzinostatin: AAPTATVTPSSGLSDGTVVKVAGAGLQAGTAYDVGQCAWVDTGVLACNPADFSSVTADANGSASTSLTVRRSFEGFLFDGTRWGTVDCTTAACQVGLSDAAGNGPEGVAISFN	–	–	–	–	135	–
HBW-21(B): NCS-apoprotein and aclacinomycin A bound together, molar ratio 1:5 (conjugate, UniProt P0A3R9 35-147, looked up, complex with aclacinomycin A, 1:5) Neocarzinostatin: AAPTATVTPSSGLSDGTVVKVAGAGLQAGTAYDVGQCAWVDTGVLACNPADFSSVTADANGSASTSLTVRRSFEGFLFDGTRWGTVDCTTAACQVGLSDAAGNGPEGVAISFN	–	–	–	–	162	–
